Test results: patent publication US20220017618A1 (JIANGSU HENGRUI MEDICINE, published 2022)

How the values were obtained:
[1] = target: T1, TIM-3 extracellular region with Flag and His tags: TIM-3-Flag-His (human); assay: TIM-3 binding ELISA, hybridoma screening (clones positive for protein binding)
T1 construct: The template is UniProt Q8TDQ0 (printed); also called human TIM-3; HAVCR2

[2] = target: T2, Full-length TIM-3 (TIM-3-full length) on TIM-3-overexpressing cells (human, UniProt Q8TDQ0 22-301); assay: binding to TIM-3-overexpressing cells, hybridoma screening (clones positive for cell binding)
T2 construct: It was used to construct the TIM-3-overexpressing cell lines; The template is UniProt Q8TDQ0 (printed); also called human TIM-3; HAVCR2

binding result [1]: binds
binding result [2]: binds
B1: mAb-1799 (antibody, V domains shown)
VH: EVKLVESEGGLVQPGSSMKLSCTASGFTFSDYYMAWVRQVPEKGLEWVANINYDGSSTYYLDSLKSRFIISRDNAKNILYLQMNSLKSDDTATYYCARDVGYYGGNYGFAYWGQGTLVTVSA
VL: DIQMTQSPASLSASVGETVTITCRASDNIYSYLAWYQQKQGKSPQLLVYNAKTLAEGVPSRFSGSGSGTQFSLKINSLQPEDFGSYYCQQHYGSPLTFGAGTKLELK
notes: Murine antibody secreted by a hybridoma
